Data: patent US20100196390A1 (RINAT NEUROSCIENCE, published 2010)
Residue numbers refer to the chain shown, from its start.

B1: 11-G2 (Fab, V domains shown)
VH: QVQLVQSGAEVKKPGASVKVSCKASGYTFTNYDIIWVRQAPGQGLEWMGYINPYNDGRKENEKFKGRVTMTRDTSTSTVYMELSSLRSEDTAVYYCARLLKYRRFRYYAIDYWGQGTTVTVSS
VL: DIQMTQSPSSLSASVGDRVTITCRASENVYSNLAWYQQKPGKAPKLLIYAASNLQSGVPSRFSGSGSGTDFTFTISSLQPEDIATYYCQHFWDSPFTFGQGTKLEIK
notes: Fab
B2: A6-11 (Fab, V domains shown)
VH: B1 VH with D56R, G57R, R58T, K59E, E60Y
VL: B1 VL with R24H, F71Y, D93G
notes: Fab
B3: 13-B2 (Fab, V domains shown)
VH: B1 VH with D56G, G57R, K59E, E60Y
VL: B1 VL with E27K, N28P, F71Y, D93G
notes: Fab
B4: 13-C12 (Fab, V domains shown)
VH: B1 VH with D56G, G57R, K59E, E60Y
VL: B1 VL with S31R, F71Y, W92V, D93Y
notes: Fab
B5: 13-D5 (Fab, V domains shown)
VH: B1 VH with D56G, G57R, K59E, E60Y
VL: B1 VL with Y30T, F71Y, D93G
notes: Fab
B6: 13-B3 (Fab, V domains shown)
VH: B1 VH with D56G, G57R, K59E, E60Y
VL: B1 VL with S31N, F71Y, D93G
notes: Fab
B7: 14-B1 (Fab, V domains shown)
VH: B1 VH
VL: B1 VL with N28P, F71Y, D93G
notes: Fab
B8: 13-C5 (Fab, V domains shown)
VH: B1 VH with D56G, G57R, K59E, E60Y
VL: B1 VL with N28P, F71Y, D93G
notes: Fab
B9: 16-F4 (Fab, V domains shown)
VH: B1 VH with R58T, E60Y
VL: B1 VL with Q55A, S56D, D93T
notes: Fab
B10: 16-D6 (Fab, V domains shown)
VH: B1 VH with R58T, E60Y, R106K
VL: B1 VL with Q55A, S56D, H90D, D93Y
notes: Fab
B11: 12-A8 (Fab, V domains shown)
VH: B1 VH
VL: B1 VL with D93G
notes: Fab
B12: 12-E11 (Fab, V domains shown)
VH: B1 VH with D56G, G57R, K59E, E60Y
VL: B1 VL with N28P, S31N, F71Y, D93Y
notes: Fab
B13: 16-A6 (Fab, V domains shown)
VH: B1 VH with R58T, E60Y
VL: B1 VL with A25T, Q55A, S56D, D93A
notes: Fab
B14: 14-A6 (Fab, V domains shown)
VH: B1 VH with D56R, G57R, K59E, E60Y
VL: B1 VL with R24H, D93G
notes: Fab
B15: 12-H6 (Fab, V domains shown)
VH: B1 VH with D56R, G57R, K59E, E60Y
VL: B1 VL with S31R, F71Y, D93G
notes: Fab
B16: 16-G9 (Fab, V domains shown)
VH: B1 VH with R58T, E60Y
VL: B1 VL with D93Y, T97G
notes: Fab
B17: 16-C1 (Fab, V domains shown)
VH: B1 VH with R58T, E60Y, R106K
VL: B1 VL with D93Y, F96W
notes: Fab
B18: 12-C9 (Fab, V domains shown)
VH: B1 VH with D56G, G57R, R58T, K59E, E60Y
VL: B1 VL with E27K, H90Q, D93Y
notes: Fab
B19: A6-10 (Fab, V domains shown)
VH: B1 VH with D56R, K59E, E60Y
VL: B1 VL with R24H, F71Y, D93G
notes: Fab
B20: 13-A12 (Fab, V domains shown)
VH: B1 VH
VL: B1 VL with S31R, F71Y, D93Y
notes: Fab
B21: 13-C6 (Fab, V domains shown)
VH: B1 VH with D56G, G57R, K59E, E60Y
VL: B1 VL with N28P, L33V, D93G
notes: Fab
B22: 12-E5 (Fab, V domains shown)
VH: B1 VH with D56G, G57R, K59E, E60Y
VL: B1 VL with N28P, D93G
notes: Fab
B23: T1-HuC1 (Fab, V domains shown)
VH: B1 VH with R58T, E60Y, R106S
VL: B1 VL with Q55A, S56D, D93Y
notes: Fab
B24: 13-C7 (Fab, V domains shown)
VH: B1 VH with D56G, G57R, K59E, E60Y
VL: B1 VL with N28P, F71Y, D93Y
notes: Fab
B25: A6-9 (Fab, V domains shown)
VH: B1 VH with G57R, K59R, E60Y
VL: B1 VL with R24H, F71Y, D93G
notes: Fab
B26: 12-D8 (Fab, V domains shown)
VH: B1 VH with D56G, G57R, K59E, E60Y
VL: B1 VL with L33T, F71Y, D93G
notes: Fab
B27: 11-G10 (Fab, V domains shown)
VH: B1 VH with D56G, G57R, K59E, E60Y
VL: B1 VL with D93G
notes: Fab
B28: 12-E9 (Fab, V domains shown)
VH: B1 VH with R58T, E60Y, G66Y
VL: B1 VL with N28S, S31N, D93G
notes: Fab
B29: 12-C8 (Fab, V domains shown)
VH: B1 VH with D56G, G57R, K59E, E60Y
VL: B1 VL with E27K, D93G
notes: Fab
B30: 12-B5 (Fab, V domains shown)
VH: B1 VH with D56R, G57R, R58I, K59E, E60Y
VL: B1 VL with N32H, F71Y, D93G
notes: Fab
B31: 16-C3 (Fab, V domains shown)
VH: B1 VH with R58T, E60Y
VL: B1 VL with H90Q, D93Y
notes: Fab
B32: 11-G5 (Fab, V domains shown)
VH: B1 VH with D56G, G57R, K59E, E60Y
VL: B1 VL with S31Y, D93Y
notes: Fab
B33: 13-F12 (Fab, V domains shown)
VH: B1 VH with D56G, G57R, K59E, E60Y
VL: B1 VL with S31R, F71Y, D93G
notes: Fab
B34: 16-B7 (Fab, V domains shown)
VH: B1 VH with R58T, E60Y
VL: B1 VL with Q55A, S56D, D93A
notes: Fab
B35: 15-H1 (Fab, V domains shown)
VH: B1 VH with R58T, E60Y, R103A, R104C, Y107E, Y108E
VL: B1 VL with D93E
notes: Fab
B36: 16-E4 (Fab, V domains shown)
VH: B1 VH with R58T, E60Y
VL: B1 VL with D93Y, F96W
notes: Fab
B37: 16-H4 (Fab, V domains shown)
VH: B1 VH with R58T, E60Y
VL: B1 VL with A25T, N28S, D93A
notes: Fab
B38: 13-C11 (Fab, V domains shown)
VH: B1 VH with D56G, G57R, K59E, E60Y
VL: B1 VL with N32H, F71Y, D93G
notes: Fab
B39: 16-A10 (Fab, V domains shown)
VH: B1 VH with R58T, E60Y
VL: B1 VL with A25T, D93Y, F96W
notes: Fab
B40: 15-G6 (Fab, V domains shown)
VH: B1 VH with R58T, E60Y, R106K
VL: B1 VL with A25T, H90Q, D93Y
notes: Fab
B41: 13-H6 (Fab, V domains shown)
VH: B1 VH
VL: B1 VL with N32H, F71Y, W92V, D93Y
notes: Fab
B42: 13-H3 (Fab, V domains shown)
VH: B1 VH
VL: B1 VL with F71Y, D93G
notes: Fab
B43: 13-B4 (Fab, V domains shown)
VH: B1 VH
VL: B1 VL with S31M, F71Y, D93Y
notes: Fab

target: TrkB (Homo sapiens (Human), UniProt Q16620 32-430); test: koff of Fab at 25 C; T1/2=Log2/koff
Sequence (Q16620 32-430 limits assumed): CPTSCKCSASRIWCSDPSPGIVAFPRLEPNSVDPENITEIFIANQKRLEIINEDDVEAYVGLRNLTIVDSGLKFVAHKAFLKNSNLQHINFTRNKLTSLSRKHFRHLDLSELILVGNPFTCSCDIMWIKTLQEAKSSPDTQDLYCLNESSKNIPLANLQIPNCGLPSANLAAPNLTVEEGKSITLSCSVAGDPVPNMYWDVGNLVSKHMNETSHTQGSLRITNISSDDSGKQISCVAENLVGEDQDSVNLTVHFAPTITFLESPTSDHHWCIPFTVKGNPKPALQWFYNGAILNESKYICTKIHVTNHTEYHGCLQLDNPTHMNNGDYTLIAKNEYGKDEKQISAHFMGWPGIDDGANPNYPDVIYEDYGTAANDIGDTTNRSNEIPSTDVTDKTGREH
Outline: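 Monovalent Fab fragments were tested at 25° C by surface plasmon resonance on a Biacore instrument, against TrkB extracellular-domain monomer amine-coupled to the chip at low capacity. Fabs were injected low to high as a 3-fold serial dilution from 100 nM for 84 sec, with a 10 minute dissociation after the top sample. The dissociation half-life was calculated from koff, which was fitted to a Langmuir binding model in BIAevaluation. The formula used was T1/2 = Log 2/koff.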

| T1/2 | Binder |
| --- | --- |
| 1.5 min | B1 |
| 9.9 min | B2 |
| 13 min | B3 |
| 13 min | B4 |
| 13 min | B5 |
| 13 min | B6 |
| 13 min | B7 |
| 13 min | B8 |
| 5 min | B9 |
| 1 min | B10 |
| 3.3 min | B11 |
| 11 min | B12 |
| 1 min | B13 |
| 2.8 min | B14 |
| 12 min | B15 |
| 4 min | B16 |
| 6 min | B17 |
| 0.8 min | B18 |
| 4 min | B19 |
| 13 min | B20 |
| 4.8 min | B21 |
| 7.5 min | B22 |

| T1/2 | Binder |
| --- | --- |
| 1.7 min | B23 |
| 13 min | B24 |
| 11.8 min | B25 |
| 10 min | B26 |
| 3 min | B27 |
| 3.5 min | B28 |
| 8 min | B29 |
| 10 min | B30 |
| 1 min | B31 |
| 5.9 min | B32 |
| 13 min | B33 |
| 5 min | B34 |
| 2.1 min | B35 |
| 7 min | B36 |
| 6 min | B37 |
| 13 min | B38 |
| 6 min | B39 |
| 1.8 min | B40 |
| 13 min | B41 |
| 13 min | B42 |
| 13 min | B43 |
